Experimental data from article PMC8616066.

Tests used:
[1] = biological target: fluorescent tagged HER2 (human) (UniProt P04626); assay: MST; Monolith NT.115; fluorescent tagged HER2, titration of purified GST fusion proteins
[2] = biological target: eGFP-MUC4β_(ΔEGF2) (human); assay: MST; Monolith NT.115; native fluorescence of the eGFP fusion proteins followed in cell lysate, titration against recombinant HER2-Fc; triplicate with two distinct cell lysates (n = 6)

| Substance | Kd [1] [µM] | Kd [2] [µM] |
| --- | --- | --- |
| GST-MUC4_(EGF1) (domain or fragment) | 0.075 | – |
| GST-MUC4_(EGF2) (domain or fragment) | 0.242 | – |
| recombinant HER2-Fc (from UniProt P04626 23-652) (Fc fusion) | – | 0.097 |
